{"source": "paper PMC4652764", "about": "“The La-related protein 1-specific domain repurposes HEAT-like repeats to directly bind a 5′TOP sequence”", "conditions_in_all_cases": "protein: recombinant; tags: His6-MBP removed by TEV; glycine linker remnant; label: 5'-32P (EMSA, probing)", "key": {"DM15 R840E": {"biological_target": "DM15 R840E (human, UniProt Q6PKG0 873-1023, R917E)", "experiment": "EMSA; up to 30 uM protein; EMSA: 20 mM Tris-HCl pH 8, 150 mM NaCl, 10% glycerol, 1 mM DTT, 0.5 ug tRNA, 1 ug BSA, <2 nM RNA, 30 min on ice, native 0.5x TBE gel at 4 C"}, "DM15 Y883A": {"biological_target": "DM15 Y883A (human, UniProt Q6PKG0 873-1023, Y960A)", "experiment": "EMSA; up to 30 uM protein; EMSA: 20 mM Tris-HCl pH 8, 150 mM NaCl, 10% glycerol, 1 mM DTT, 0.5 ug tRNA, 1 ug BSA, <2 nM RNA, 30 min on ice, native 0.5x TBE gel at 4 C"}, "DM15 GQ908-909AA": {"biological_target": "DM15 GQ908-909AA (human, UniProt Q6PKG0 873-1023, G985A;Q986A)", "experiment": "EMSA; up to 150 uM; two-state shift like WT, more protein needed for maximum shift; EMSA: 20 mM Tris-HCl pH 8, 150 mM NaCl, 10% glycerol, 1 mM DTT, 0.5 ug tRNA, 1 ug BSA, <2 nM RNA, 30 min on ice, native 0.5x TBE gel at 4 C"}}, "data": [{"binder": "CCUCUUUUCCGUGGCGCCUC (ssRNA)", "note": "[RPS6-20mer]", "values": [{"measurement": "binding result", "setting": "DM15 R840E", "result": "no binding"}, {"measurement": "binding result", "setting": "DM15 Y883A", "result": "no binding"}, {"measurement": "binding result", "setting": "DM15 GQ908-909AA", "result": "binds"}]}]}
